Test results as given in patent US12099068B2, “Biomarkers for graft-versus-host disease” (Incyte Corporation, priority 2018, dated 2024).

B1: KLK10 (protein, UniProt O43240 31-276, looked up)
Kallikrein-10: AEAALLPQNDTRLDPEAYGSPCARGSQPWQVSLFNGLSFHCAGVLVDQSWVLTAAHCGNKPLWARVGDDHLLLLQGEQLRRTTRSVVHPKYHQGSGPILPRRTDEHDLMLLKLARPVVLGPRVRALQLPYRCAQPGDQCQVAGWGTTAARRVKYNKGLTCSSITILSPKECEVFYPGVVTNNMICAGLDRGQDPCQSDSGGPLVCDETLQGILSWGVYPCGSAQHPAVYTQICKYMSWINKVIRSN
B2: LAT2 (protein, UniProt Q9GZY6 1-243, looked up)
Linker for activation of …: MSSGTELLWPGAALLVLLGVAASLCVRCSRPGAKRSEKIYQQRSLREDQQSFTGSRTYSLVGQAWPGPLADMAPTRKDKLLQFYPSLEDPASSRYQNFSKGSRHGSEEAYIDPIAMEYYNWGRFSKPPEDDDANSYENVLICKQKTTETGAQQEGIGGLCRGDLSLSLALKTGPTSGLCPSASPEEDEESEDYQNSASIHQWRESRKVMGQLQREASPGPVGSPDEEDGEPDYVNGEVAATEA
B3: TIGAR (protein, UniProt Q9NQ88 1-270, looked up)
Fructose-2,6-bisphosphatase …: MARFALTVVRHGETRFNKEKIIQGQGVDEPLSETGFKQAAAAGIFLNNVKFTHAFSSDLMRTKQTMHGILERSKFCKDMTVKYDSRLRERKYGVVEGKALSELRAMAKAAREECPVFTPPGGETLDQVKMRGIDFFEFLCQLILKEADQKEQFSQGSPSNCLETSLAEIFPLGKNHSSKVNSDSGIPGLAASVLVVSHGAYMRSLFDYFLTDLKCSLPATLSRSELMSVTPNTGMSLFIINFEEGREVKPTVQCICMNLQDHLNGLTETR
B4: FAM3C (protein, UniProt Q92520 25-227, looked up)
Protein FAM3C: QVFEIKMDASLGNLFARSALDTAARSTKPPRYKCGISKACPEKHFAFKMASGAANVVGPKICLEDNVLMSGVKNNVGRGINVALANGKTGEVLDTKYFDMWGGDVAPFIEFLKAIQDGTIVLMGTYDDGATKLNDEARRLIADLGSTSITNLGFRDNWVFCGGKGIKTKSPFEQHIKNNKDTNKYEGWPEVVEMEGCIPQKQD
B5: SNAP23 (protein, UniProt O00161 1-211, looked up)
Synaptosomal-associated …: MDNLSSEEIQQRAHQITDESLESTRRILGLAIESQDAGIKTITMLDEQKEQLNRIEEGLDQINKDMRETEKTLTELNKCCGLCVCPCNRTKNFESGKAYKTTWGDGGENSPCNVVSKQPGPVTNGQLQQPTTGAASGGYIKRITNDAREDEMEENLTQVGSILGNLKDMALNIGNEIDAQNPQIKRITDKADTNRDRIDIANARAKKLIDS
B6: STAMPB (protein, UniProt O95630 1-424, looked up)
STAM-binding protein: MSDHGDVSLPPEDRVRALSQLGSAVEVNEDIPPRRYFRSGVEIIRMASIYSEEGNIEHAFILYNKYITLFIEKLPKHRDYKSAVIPEKKDTVKKLKEIAFPKAEELKAELLKRYTKEYTEYNEEKKKEAEELARNMAIQQELEKEKQRVAQQKQQQLEQEQFHAFEEMIRNQELEKERLKIVQEFGKVDPGLGGPLVPDLEKPSLDVFPTLTVSSIQPSDCHTTVRPAKPPVVDRSLKPGALSNSESIPTIDGLRHVVVPGRLCPQFLQLASANTARGVETCGILCGKLMRNEFTITHVLIPKQSAGSDYCNTENEEELFLIQDQQGLITLGWIHTHPTQTAFLSSVDLHTHCSYQMMLPESVAIVCSPKFQETGFFKLTDHGLEEISSCRQKGFHPHSKDPPLFCSCSHVTVVDRAVTITDLR
B7: NUB1 (protein, UniProt Q9Y5A7 1-615, looked up)
NEDD8 ultimate buster 1: MAQKKYLQAKLTQFLREDRIQLWKPPYTDENKKVGLALKDLAKQYSDRLECCENEVEKVIEEIRCKAIERGTGNDNYRTTGIATIEVFLPPRLKKDRKNLLETRLHITGRELRSKIAETFGLQENYIKIVINKKQLQLGKTLEEQGVAHNVKAMVLELKQSEEDARKNFQLEEEEQNEAKLKEKQIQRTKRGLEILAKRAAETVVDPEMTPYLDIANQTGRSIRIPPSERKALMLAMGYHEKGRAFLKRKEYGIALPCLLDADKYFCECCRELLDTVDNYAVLQLDIVWCYFRLEQLECLDDAEKKLNLAQKCFKNCYGENHQRLVHIKGNCGKEKVLFLRLYLLQGIRNYHSGNDVEAYEYLNKARQLFKELYIDPSKVDNLLQLGFTAQEARLGLRACDGNVDHAATHITNRREELAQIRKEEKEKKRRRLENIRFLKGMGYSTHAAQQVLHAASGNLDEALKILLSNPQMWWLNDSNPETDNRQESPSQENIDRLVYMGFDALVAEAALRVFRGNVQLAAQTLAHNGGSLPPELPLSPEDSLSPPATSPSDSAGTSSASTDEDMETEAVNEILEDIPEHEEDYLDSTLEDEEIIIAEYLSYVENRKSATKKN
B8: AGR2 (protein, UniProt O95994 21-175, looked up)
Anterior gradient protein 2 …: RDTTVKPGAKKDTKDSRPKLPQTLSRGWGDQLIWTQTYEEALYKSKTSNKPLMIIHHLDECPHSQALKKVFAENKEIQKLAEQFVLLNLVYETTDKHLSPDGQYVPRIMFVDPSLTVRADITGRYSNRLYAYEPADTALLLDNMKKALKLLKTEL

test system: plasma proteins; assay: Plasma proteins modulated between baseline and day 28 in responders (CR, VGPR, PR; n = 19), Example 6 (Table 13); type: in vivo, human; settings: plasma protein (OLINK NPX); responders (CR, VGPR, PR; n = 19); itacitinib 200 mg or 300 mg QD with corticosteroids; day 28 vs baseline
Summary of the method: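 Longitudinal comparison, day 28 versus baseline, with steroid-naive (N=10) and steroid-refractory (N=18) patients combined. Proteins measured by OLINK proximity extension, log2 normalized protein expression. Differences tested by t tests, ANOVA, Pearson correlation, P<0.05 significant.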

Point of comparison: B1, “Fold Change, Increased Expression from Baseline to Day 28” value 1.2102. Against it:
- B4 — higher, 1.3109
- B8 — higher, 1.4472

Point of comparison: B6, “Fold Change, Decreased Expression from Baseline to Day 28” value −1.3721. Against it:
- B2 — lower, −1.7755
- B3 — lower, −1.3733
- B5 — lower, −1.5751
- B7 — lower, −1.4966
